Results as given in PMC4797280 (Nucleic Acids Research, 2016).
Like-named read-outs stand apart in the source and are kept apart here.

T1: Mre11^I158R (LexA-Mre11^I158R) (S. cerevisiae, UniProt P32829 1-692, I158R)
T1 sequence (looked up): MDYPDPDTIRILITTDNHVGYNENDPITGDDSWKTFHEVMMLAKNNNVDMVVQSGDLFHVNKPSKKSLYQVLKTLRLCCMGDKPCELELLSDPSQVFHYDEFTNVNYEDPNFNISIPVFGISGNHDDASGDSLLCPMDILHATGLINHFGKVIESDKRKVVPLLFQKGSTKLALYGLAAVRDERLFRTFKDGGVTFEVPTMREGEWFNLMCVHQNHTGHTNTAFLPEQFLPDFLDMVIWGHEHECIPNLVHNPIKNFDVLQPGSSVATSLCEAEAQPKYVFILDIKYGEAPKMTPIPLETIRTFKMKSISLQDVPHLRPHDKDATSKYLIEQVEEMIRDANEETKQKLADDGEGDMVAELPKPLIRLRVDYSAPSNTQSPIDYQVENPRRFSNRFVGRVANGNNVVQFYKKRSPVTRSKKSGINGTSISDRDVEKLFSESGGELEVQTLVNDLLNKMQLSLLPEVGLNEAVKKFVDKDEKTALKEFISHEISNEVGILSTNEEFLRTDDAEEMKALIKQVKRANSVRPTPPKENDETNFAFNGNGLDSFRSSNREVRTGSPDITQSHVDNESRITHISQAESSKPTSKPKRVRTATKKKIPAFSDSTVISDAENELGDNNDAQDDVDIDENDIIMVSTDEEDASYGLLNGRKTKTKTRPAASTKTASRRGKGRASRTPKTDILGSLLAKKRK

T2: S. cerevisiae Mre11 (LexA-Mre11) (S. cerevisiae, UniProt P32829 1-692)
T2 sequence (looked up): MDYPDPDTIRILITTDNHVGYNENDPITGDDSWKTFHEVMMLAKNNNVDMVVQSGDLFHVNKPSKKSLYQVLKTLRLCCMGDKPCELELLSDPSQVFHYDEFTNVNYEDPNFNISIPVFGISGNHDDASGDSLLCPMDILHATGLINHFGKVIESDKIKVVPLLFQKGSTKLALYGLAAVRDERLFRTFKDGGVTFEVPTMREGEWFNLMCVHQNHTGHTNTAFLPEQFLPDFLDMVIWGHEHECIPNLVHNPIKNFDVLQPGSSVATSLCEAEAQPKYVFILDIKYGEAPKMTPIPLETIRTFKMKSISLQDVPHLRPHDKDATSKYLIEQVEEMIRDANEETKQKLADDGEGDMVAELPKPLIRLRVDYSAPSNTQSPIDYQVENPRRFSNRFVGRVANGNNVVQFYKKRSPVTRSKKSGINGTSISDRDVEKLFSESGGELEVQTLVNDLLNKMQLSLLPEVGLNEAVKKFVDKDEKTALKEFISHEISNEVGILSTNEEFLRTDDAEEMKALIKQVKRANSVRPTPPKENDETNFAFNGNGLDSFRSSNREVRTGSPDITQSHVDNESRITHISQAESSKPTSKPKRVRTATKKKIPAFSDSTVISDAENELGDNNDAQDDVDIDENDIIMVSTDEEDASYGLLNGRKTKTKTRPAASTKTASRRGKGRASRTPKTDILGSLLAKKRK

T3: Mre11^D16A (LexA-Mre11^D16A) (S. cerevisiae, UniProt P32829 1-692, D16A)
T3 sequence (looked up): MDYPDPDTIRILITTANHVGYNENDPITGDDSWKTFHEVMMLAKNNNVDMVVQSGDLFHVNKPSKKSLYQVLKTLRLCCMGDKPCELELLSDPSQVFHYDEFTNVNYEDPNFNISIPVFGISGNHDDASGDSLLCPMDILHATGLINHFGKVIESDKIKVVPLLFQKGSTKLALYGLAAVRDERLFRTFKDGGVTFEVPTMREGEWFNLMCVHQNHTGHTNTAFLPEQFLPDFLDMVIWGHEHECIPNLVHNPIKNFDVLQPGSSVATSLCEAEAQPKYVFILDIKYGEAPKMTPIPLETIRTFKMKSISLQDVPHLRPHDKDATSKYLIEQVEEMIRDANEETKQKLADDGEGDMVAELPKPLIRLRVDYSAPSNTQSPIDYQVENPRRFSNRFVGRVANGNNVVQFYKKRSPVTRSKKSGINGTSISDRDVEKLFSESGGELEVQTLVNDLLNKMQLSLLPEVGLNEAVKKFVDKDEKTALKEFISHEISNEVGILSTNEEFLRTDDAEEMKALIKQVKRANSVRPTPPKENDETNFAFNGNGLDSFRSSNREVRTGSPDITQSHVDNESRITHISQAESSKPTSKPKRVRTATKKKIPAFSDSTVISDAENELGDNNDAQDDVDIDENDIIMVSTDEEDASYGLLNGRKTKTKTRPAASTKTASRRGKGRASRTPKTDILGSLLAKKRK

T4: Mre11^T188I (LexA-Mre11^T188I) (S. cerevisiae, UniProt P32829 1-692, T188I)
T4 sequence (looked up): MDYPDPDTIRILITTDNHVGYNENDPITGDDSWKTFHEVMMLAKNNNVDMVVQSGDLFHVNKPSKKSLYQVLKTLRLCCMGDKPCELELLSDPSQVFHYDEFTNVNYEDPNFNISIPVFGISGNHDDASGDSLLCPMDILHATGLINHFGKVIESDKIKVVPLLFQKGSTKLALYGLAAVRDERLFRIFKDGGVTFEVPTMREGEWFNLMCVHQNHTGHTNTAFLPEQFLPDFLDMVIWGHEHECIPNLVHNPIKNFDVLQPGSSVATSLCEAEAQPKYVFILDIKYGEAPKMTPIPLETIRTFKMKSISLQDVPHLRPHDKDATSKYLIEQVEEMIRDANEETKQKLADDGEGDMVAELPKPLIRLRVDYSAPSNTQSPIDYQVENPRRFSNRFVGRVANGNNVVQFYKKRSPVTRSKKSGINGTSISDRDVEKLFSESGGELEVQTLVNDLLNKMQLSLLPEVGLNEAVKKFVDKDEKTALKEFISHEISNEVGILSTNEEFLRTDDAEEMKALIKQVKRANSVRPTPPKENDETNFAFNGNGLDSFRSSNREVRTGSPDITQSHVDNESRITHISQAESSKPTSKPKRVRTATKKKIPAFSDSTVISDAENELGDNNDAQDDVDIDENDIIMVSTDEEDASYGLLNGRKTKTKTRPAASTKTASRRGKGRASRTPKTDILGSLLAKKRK

T5: Mre11^P84S (LexA-Mre11^P84S) (S. cerevisiae, UniProt P32829 1-692, P84S)
T5 sequence (looked up): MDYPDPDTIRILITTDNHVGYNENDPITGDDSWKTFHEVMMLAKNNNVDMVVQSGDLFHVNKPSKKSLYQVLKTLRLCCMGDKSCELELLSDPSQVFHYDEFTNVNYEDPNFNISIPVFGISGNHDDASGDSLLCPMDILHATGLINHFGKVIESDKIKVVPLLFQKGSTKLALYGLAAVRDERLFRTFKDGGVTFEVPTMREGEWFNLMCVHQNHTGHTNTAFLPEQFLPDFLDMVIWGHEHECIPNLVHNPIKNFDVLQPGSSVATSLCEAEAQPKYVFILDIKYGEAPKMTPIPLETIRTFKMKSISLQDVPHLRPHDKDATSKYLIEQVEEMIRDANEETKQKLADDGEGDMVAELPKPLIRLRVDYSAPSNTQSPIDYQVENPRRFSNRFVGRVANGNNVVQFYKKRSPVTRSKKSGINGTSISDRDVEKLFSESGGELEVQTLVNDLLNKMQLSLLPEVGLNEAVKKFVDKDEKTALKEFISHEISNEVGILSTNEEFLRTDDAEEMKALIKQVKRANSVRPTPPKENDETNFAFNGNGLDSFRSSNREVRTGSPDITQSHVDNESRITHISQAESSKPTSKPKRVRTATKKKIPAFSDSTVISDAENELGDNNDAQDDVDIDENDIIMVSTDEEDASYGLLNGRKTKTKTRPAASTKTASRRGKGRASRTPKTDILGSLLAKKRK

B1: Xrs2 (Gal4AD-Xrs2) (natural protein, S. cerevisiae, UniProt P33301 1-854, looked up)
chain: MWVVRYQNTLEDGSISFISCCLQAFKTYSIGRSSKNPLIIKNDKSISRQHITFKWEINNSSDLKHSSLCLVNKGKLTSLNKKFMKVGETFTINASDVLKSTIIELGTTPIRIEFEWINEVWNIPPHLTQFRTMLSEYGISTEISINDIPANLMISDYPKSEDNSIRELYALVSTIPMKKSRFLMELCNTLLPTSKTNLKFDEMWNDMISNPEYNVFDFDPNILLSKFMRLNNIRVLTTIKSEPRLSSLLRTFNINLFAFDNIDSLYKYVDSLEASTEYLILTTTDKKENGKILCTIKTMLTSIIDGTLSAVINMKGASSRTLDNGKFDQISEGMSTILKTSRAPEVEASPVVSKKRKLNRRRVLPLDSLDFFAGGLSTKTLSENRSLTDAKRLNCGAESKTVISSPNIAEADEKHAPFLQNALKPTEDIGKKSGHSSPGAIIVSSPNLGTVNTSEDSLDKSLQSHKLPQPSLPEVAGIGSQTISSNSADYETAAVNSMDDAEVTKNFRVNHHQNIEQPSKNIRKLSNYSREISSPLQENCKSPVKELSIKEKSGTPHAFVEAIQETKNREVKRVKSTIVELKDEELSEEAINQLKNLAIVEPSNNLLRKSFDSEGNKTSRTTEKWENSLMEPEWHKRKNFKTFVKVRPKSKAHKEEGKNNTQSSDFIRNAAFLITRNYVPLKKYSKKDTTTKWGTEENEDMFALTEMERFGSNTFMSDNINSNTIQKRSQALNRFTNEDSSNEGEEDSFSFSRCSGTAASVQPLKNKIFITDEDDLGDIDDKSDRLNHRENNRNLFVVKEMNLRPNLSEECSKQSRHSRSATSRSRGSFGASNNGDGDDDDDDGPKFTFKRRKG
B2: Smt3 (Gal4AD-Smt3) (natural protein, S. cerevisiae, UniProt Q12306 1-101, looked up)
chain: MSDSEVNQEAKPEVKPEVKPETHINLKVSDGSSEIFFKIKKTTPLRRLMEAFAKRQGKEMDSLRFLYDGIRIQADQTPEDLDMEDNDIIEAHREQIGGATY

What was measured:
Assay in all cases: two-hybrid
[1] = target: S. cerevisiae Mre11 (LexA-Mre11) (S. cerevisiae) (UniProt P32829)
[2] = target: S. cerevisiae Mre11 (LexA-Mre11) (S. cerevisiae) (UniProt P32829); remark: listed apart in the source
[3] = target: T1, Mre11^I158R (LexA-Mre11^I158R)
[4] = target: T2, S. cerevisiae Mre11 (LexA-Mre11)
[5] = target: T1, Mre11^I158R (LexA-Mre11^I158R); remark: listed apart in the source
[6] = target: T3, Mre11^D16A (LexA-Mre11^D16A)
[7] = target: T4, Mre11^T188I (LexA-Mre11^T188I)
[8] = target: T5, Mre11^P84S (LexA-Mre11^P84S)
[9] = target: T2, S. cerevisiae Mre11 (LexA-Mre11); remark: listed apart in the source

| Molecule | two-hybrid β-galactosidase activity (β-galactosidase units) [1] | two-hybrid β-galactosidase activity (β-galactosidase units) [2] | two-hybrid β-galactosidase activity [3] | two-hybrid β-galactosidase activity [4] | two-hybrid β-galactosidase activity [5] | two-hybrid β-galactosidase activity [6] | two-hybrid β-galactosidase activity [7] | two-hybrid β-galactosidase activity [8] | two-hybrid β-galactosidase activity [9] |
| --- | --- | --- | --- | --- | --- | --- | --- | --- | --- |
| Smt3-allR (Gal4AD-Smt3^allR) (from UniProt Q12306 1-101) (natural protein) | 21.8 | 5.4 | – | – | – | – | – | – | – |
| Smt3 (Gal4AD-Smt3) (from UniProt Q12306 1-101) (natural protein) | 71.9 | 38.8 | – | – | – | – | – | – | – |
| B1 | – | – | 35.1 ± 1 β-galactosidase units | 125 ± 9.5 β-galactosidase units | 37.9 ± 4 β-galactosidase units | 76.2 ± 7 β-galactosidase units | 153 ± 4.7 β-galactosidase units | 162 ± 6.4 β-galactosidase units | 188 ± 8.5 β-galactosidase units |
| B2 | – | – | – | – | – | – | 60.1 ± 3.6 β-galactosidase units | 51.7 ± 3.1 β-galactosidase units | – |
